The target in one test is T1, 4H1738-AA.
T1 chain: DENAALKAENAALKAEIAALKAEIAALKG
Kind of test: two-hybrid library CCmax.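 Also: natural log of median RNA to DNA barcode read ratio; higher means stronger binding.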

Another test concerns the target T2, 4H2219-AA.
T2 chain: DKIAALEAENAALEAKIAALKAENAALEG
The test is described as follows: two-hybrid library CCmax.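 Also: natural log of median RNA to DNA barcode read ratio; higher means stronger binding.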 The note with it: mean of both orientations.

The next test concerns the target T3, 4H249-AA.
T3 chain: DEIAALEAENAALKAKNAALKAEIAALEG
The test is described as follows: two-hybrid library CCmax.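 Also: natural log of median RNA to DNA barcode read ratio; higher means stronger binding.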 The note with it: mean of both orientations.

The next test concerns the target T4, 4H2504-AA.
T4 chain: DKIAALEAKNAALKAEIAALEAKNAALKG
Kind of test: two-hybrid library CCmax.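 Also: natural log of median RNA to DNA barcode read ratio; higher means stronger binding.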

A further test has as its target T5, 4H2592-AA.
T5 chain: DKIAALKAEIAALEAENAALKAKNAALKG
The test is described as follows: two-hybrid library CCmax.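 Also: natural log of median RNA to DNA barcode read ratio; higher means stronger binding.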 The note with it: mean of both orientations.

The target of a further test is T6, 4H2611-AA.
T6 chain: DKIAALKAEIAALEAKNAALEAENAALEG
The test is described as follows: two-hybrid library CCmax.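 Also: natural log of median RNA to DNA barcode read ratio; higher means stronger binding.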 The following applies: mean of both orientations.

Another test deals with T7, 4H2774-AA.
T7 chain: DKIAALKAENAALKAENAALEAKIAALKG
The test is described as follows: two-hybrid library CCmax. The note with it: mean of both orientations.

In the next test the target is T8, 4H3001-AA.
T8 chain: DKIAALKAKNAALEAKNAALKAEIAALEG
Kind of test: two-hybrid library CCmax. The note with it: mean of both orientations.

The target of the next test is T9, 4H3340-AA.
T9 chain: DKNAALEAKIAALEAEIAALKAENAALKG
The test is described as follows: two-hybrid library CCmax. The note with it: mean of both orientations.

The next test concerns the target T10, 4H3381-AA.
T10 chain: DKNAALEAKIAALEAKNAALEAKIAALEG
The test is described as follows: two-hybrid library CCmax. The note with it: mean of both orientations.

For the next test, the target named is T11, 4H347-AA.
T11 chain: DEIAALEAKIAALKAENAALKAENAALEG
The test is described as follows: two-hybrid library CCmax. The following applies: mean of both orientations.

In another test the target is T12, 4H3493-AA.
T12 chain: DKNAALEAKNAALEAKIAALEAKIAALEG
Kind of test: two-hybrid library CCmax. The note with it: mean of both orientations.

The target of the next test is T13, 4H376-AA.
T13 chain: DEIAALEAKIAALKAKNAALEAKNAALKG
The test is described as follows: two-hybrid library CCmax. The following applies: mean of both orientations.

A further test deals with T14, 4H406-AA.
T14 chain: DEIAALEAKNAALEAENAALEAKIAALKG
The test is described as follows: two-hybrid library CCmax. The following applies: mean of both orientations.

The target in the next test is T15, 4H688-AA.
T15 chain: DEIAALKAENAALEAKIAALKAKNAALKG
The test is described as follows: two-hybrid library CCmax. The note with it: mean of both orientations.

The next test addresses T16, 4H963-AA.
T16 chain: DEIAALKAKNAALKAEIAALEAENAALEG
Kind of test: two-hybrid library CCmax. The note with it: mean of both orientations.

The target of the next test is T17, 4H1387-bN.
T17 chain: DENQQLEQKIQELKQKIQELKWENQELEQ
The test is described as follows: two-hybrid library CCNG1.

The target in the next test is T18, 4H1406-bN.
T18 chain: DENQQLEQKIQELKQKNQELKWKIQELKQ
Kind of test: two-hybrid library CCNG1.

A further test has as its target T19, 4H2162-bN.
T19 chain: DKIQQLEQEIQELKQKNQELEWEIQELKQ
The test is described as follows: two-hybrid library CCNG1.

Another test concerns the target T20, 4H3592-bN.
T20 chain: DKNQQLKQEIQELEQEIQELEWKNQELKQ
Kind of test: two-hybrid library CCNG1.

In a further test the target is T21, 4H3601-bN.
T21 chain: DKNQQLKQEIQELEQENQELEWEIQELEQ
Kind of test: two-hybrid library CCNG1.

The target of a further test is T22, 4H3907-bN.
T22 chain: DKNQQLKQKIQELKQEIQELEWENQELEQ
Kind of test: two-hybrid library CCNG1.

The next test deals with T23, 4H4038-bN.
T23 chain: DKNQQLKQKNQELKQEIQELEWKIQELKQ
The test is described as follows: two-hybrid library CCNG1.

The target in the next test is T24, 4H454-bN.
T24 chain: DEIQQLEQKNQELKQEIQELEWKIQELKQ
Kind of test: two-hybrid library CCNG1.

Another test has as its target T25, 4H1369-bN.
T25 chain: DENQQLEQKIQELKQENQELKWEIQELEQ
Kind of test: two-hybrid library CCNG1.

The target in the next test is T26, 4H1446-bN.
T26 chain: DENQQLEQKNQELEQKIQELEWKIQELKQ
The test is described as follows: two-hybrid library CCNG1.

In a further test the target is T27, 4H1845-bN.
T27 chain: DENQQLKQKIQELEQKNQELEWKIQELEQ
The test is described as follows: two-hybrid library CCNG1.

The target in another test is T28, 4H2162-bA.
T28 chain: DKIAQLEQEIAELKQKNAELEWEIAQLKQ
The test is described as follows: two-hybrid library CCNG1.

The target of the next test is T29, 4H2576-bN.
T29 chain: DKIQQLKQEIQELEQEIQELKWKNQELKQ
The test is described as follows: two-hybrid library CCNG1.

For the next test, the target named is T30, 4H2610-bN.
T30 chain: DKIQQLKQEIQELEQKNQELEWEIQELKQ
The test is described as follows: two-hybrid library CCNG1.

Another test addresses T31, 4H2667-bN.
T31 chain: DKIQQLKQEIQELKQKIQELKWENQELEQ
The test is described as follows: two-hybrid library CCNG1.

In the next test the target is T32, 4H2697-bN.
T32 chain: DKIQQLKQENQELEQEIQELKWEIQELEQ
The test is described as follows: two-hybrid library CCNG1.

The target in a further test is T33, 4H3189-bN.
T33 chain: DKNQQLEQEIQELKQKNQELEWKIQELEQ
The test is described as follows: two-hybrid library CCNG1.

The next test has as its target T34, 4H331-bN.
T34 chain: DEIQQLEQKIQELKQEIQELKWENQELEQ
The test is described as follows: two-hybrid library CCNG1.

Another test deals with T35, 4H3606-bN.
T35 chain: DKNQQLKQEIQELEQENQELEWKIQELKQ
Kind of test: two-hybrid library CCNG1.

A further test concerns the target T36, 4H370-bN.
T36 chain: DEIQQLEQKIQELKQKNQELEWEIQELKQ
The test is described as follows: two-hybrid library CCNG1.

A further test concerns the target T37, 4H3782-bN.
T37 chain: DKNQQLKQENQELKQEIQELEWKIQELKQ
Kind of test: two-hybrid library CCNG1.

Another test addresses T38, 4H3843-bN.
T38 chain: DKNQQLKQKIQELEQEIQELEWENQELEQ
The test is described as follows: two-hybrid library CCNG1.

For a further test, the target named is T39, 4H4001-bN.
T39 chain: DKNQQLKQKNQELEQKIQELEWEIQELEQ
Kind of test: two-hybrid library CCNG1.

For another test, the target named is T40, 4H462-bN.
T40 chain: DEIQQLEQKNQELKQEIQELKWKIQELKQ
Kind of test: two-hybrid library CCNG1.

The target of another test is T41, 4H568-bN.
T41 chain: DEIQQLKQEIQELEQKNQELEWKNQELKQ
The test is described as follows: two-hybrid library CCNG1.

Another test concerns the target T42, 4H607-bN.
T42 chain: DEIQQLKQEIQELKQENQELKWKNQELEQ
The test is described as follows: two-hybrid library CCNG1.

The target in a further test is T43, 4H687-bN.
T43 chain: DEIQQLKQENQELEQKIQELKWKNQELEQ
Kind of test: two-hybrid library CCNG1.

A further test deals with T44, 4H72-bN.
T44 chain: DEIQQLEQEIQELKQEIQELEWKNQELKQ
The test is described as follows: two-hybrid library CCNG1.

Another test addresses T45, 4H797-bN.
T45 chain: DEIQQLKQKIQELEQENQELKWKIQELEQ
The test is described as follows: two-hybrid library CCNG1.

For another test, the target named is T46, 4H883-bN.
T46 chain: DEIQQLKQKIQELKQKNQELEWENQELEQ
Kind of test: two-hybrid library CCNG1.

For another test, the target named is T47, 4H918-bN.
T47 chain: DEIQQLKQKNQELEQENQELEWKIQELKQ
Kind of test: two-hybrid library CCNG1.

The target in another test is T48, 4H953-bN.
T48 chain: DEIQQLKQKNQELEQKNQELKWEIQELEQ
Kind of test: two-hybrid library CCNG1.

A further test concerns the target T49, 4H967-bN.
T49 chain: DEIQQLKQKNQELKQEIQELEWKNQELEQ
The test is described as follows: two-hybrid library CCNG1.

The next test concerns the target T50, 4H687-bH.
T50 chain: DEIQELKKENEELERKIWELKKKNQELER
Kind of test: two-hybrid library CCNG1.

A further test addresses T51, 4H717-bH.
T51 chain: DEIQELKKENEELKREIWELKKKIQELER
The test is described as follows: two-hybrid library CCNG1.

The target of a further test is T52, 4H72-bH.
T52 chain: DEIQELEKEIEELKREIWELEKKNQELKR
Kind of test: two-hybrid library CCNG1.

For another test, the target named is T53, 4H754-bH.
T53 chain: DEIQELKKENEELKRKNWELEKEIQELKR
The test is described as follows: two-hybrid library CCNG1.

The target in another test is T54, 4H797-bH.
T54 chain: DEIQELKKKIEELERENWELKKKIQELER
Kind of test: two-hybrid library CCNG1.

Another test deals with T55, 4H883-bH.
T55 chain: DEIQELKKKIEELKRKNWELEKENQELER
The test is described as follows: two-hybrid library CCNG1.

The next test concerns the target T56, 4H908-bH.
T56 chain: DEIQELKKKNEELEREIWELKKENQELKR
Kind of test: two-hybrid library CCNG1.

The target in a further test is T57, 4H918-bH.
T57 chain: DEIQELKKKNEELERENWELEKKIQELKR
The test is described as follows: two-hybrid library CCNG1.

A further test deals with T58, 4H953-bH.
T58 chain: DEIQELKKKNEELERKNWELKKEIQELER
The test is described as follows: two-hybrid library CCNG1.

The next test deals with T59, 4H967-bH.
T59 chain: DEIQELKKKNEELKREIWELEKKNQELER
Kind of test: two-hybrid library CCNG1.

The next test addresses T60, O10-bH.
T60 chain: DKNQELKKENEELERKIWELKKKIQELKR
The test is described as follows: two-hybrid library CCNG1.

Turning to DENAALKAENAALKAEIAALKAEIAALKG [4H1738-AA], the interaction score with 4H1738-AA was 1.65; with 4H2219-AA it was -1.76; with 4H249-AA, -1.2; with 4H2504-AA, -1.96; with 4H2592-AA, -1.14; in the test with 4H2611-AA, -1.52. The interaction score is -1.15 with 4H2774-AA; -1.39 with 4H3001-AA; -1.31 in the test with 4H3340-AA; -1.45 with 4H3381-AA; -1.67 with 4H347-AA; -1.11 with 4H3493-AA. For the same molecule, the interaction score with 4H376-AA was -1.75; with 4H406-AA, -1.49; in the test with 4H688-AA it was -1.24; with 4H963-AA, -1.8.

On to DENQQLEQKIQELKQKIQELKWENQELEQ [4H1387-bN], for which the interaction score was -1.9 with 4H1387-bN; -0.625 with 4H1406-bN; -2.27 with 4H2162-bN; 0.94 in the test with 4H3592-bN; -0.293 with 4H3601-bN; 1.31 with 4H3907-bN. Also, the values for the interaction score in the test with 4H4038-bN and in the test with 4H454-bN were 0.464 and -0.28, respectively.

Turning to DENQQLEQKIQELKQENQELKWEIQELEQ [4H1369-bN], the interaction score with 4H1369-bN was -0.802; with 4H1446-bN it was -2.34; with 4H1845-bN, -1.4; with 4H2162-bA, -0.463; in the test with 4H2576-bN, -0.023; with 4H2610-bN, -0.97. The interaction score is -1.23 with 4H2667-bN; -0.852 with 4H2697-bN; -0.697 with 4H3189-bN; -1.16 in the test with 4H331-bN; 0.215 in the test with 4H3606-bN; -1.79 in the test with 4H370-bN. In addition, the interaction score in the test with 4H3782-bN is -1.06; with 4H3843-bN, -1.02; with 4H4001-bN it was -0.815; with 4H462-bN, -1.07; with 4H568-bN, -1.26; in the test with 4H607-bN it was -0.655. Further, the interaction score is -1.7 with 4H687-bN; -1.26 in the test with 4H72-bN; -1.65 with 4H797-bN; -1.19 with 4H883-bN; -0.868 with 4H918-bN; -1.2 with 4H953-bN. For the same molecule, the interaction score in the test with 4H967-bN was -0.997.

Consider DEIQELKKENEELERKIWELKKKNQELER [4H687-bH], for which the interaction score in the test with 4H687-bH was 0; with 4H717-bH, -0.0944; in the test with 4H72-bH it was 0.182; with 4H754-bH it was -0.221; with 4H797-bH, -0.897; in the test with 4H883-bH, 0.0397. In addition, the interaction score was -0.414 with 4H908-bH; -0.146 with 4H918-bH; -0.5 in the test with 4H953-bH; 1.63 in the test with 4H967-bH; -0.602 with O10-bH.

Source of the values: publication PMC10397247.
